From the nanobody polyreactivity screen of Harvey et al. (2022)

Assay: yeast display, Sf9 membrane polyspecificity reagent, FACS + sequencing; frameworks hold sequencing errors
Summary of the method: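 After 36–48 hours of galactose induction, yeast (Saccharomyces cerevisiae BJ5465) displaying a synthetic nanobody library were stained at 4 °C for 1 hour with 10% biotinylated, detergent-solubilized Sf9 membrane reagent. Streptavidin microbeads enriched the stained cells before FACS sorting into low and high (top ~1%) gates on anti-HA and streptavidin fluorescence. Each clone's polyreactivity label reflects its gate of origin.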

| Sequence | polyreactivity (PSR sort gate) |
| --- | --- |
| QVQLVESGGGLVQAGGSLRLSCAASGSTFYYYAMGWSRQAPGKERELVATITSGGSTNYADSVKGRFTISRDNAKNTVYLQMNSLKPEDTAVYYCNADDGYSVWGYDYWGQGTQVTVSS | low polyreactivity |
| QVQLVESGGGLVQAGGSLRLSCAASGRTFKDYAMGWYRQAPGKERELVAAISWSGGDTYYADSVKGRVTISRDNAKNTVYLQMNSLKPEDTAVYYCNADPSGVFFYSLEFDYWGQGTQVTVSS | low polyreactivity |
| QVQLVESGGGLVQAGGSLRLSCAASGSIFVSNAMGWYRQAPGKEREFDAGITRRGGRTYYADSVKGRFTISRDNAKNTVYLQMNSLKPEDTPVYYCAAKSTTSRFDYWGQGTQVTVSS | high polyreactivity |
| QFQLVESGGGLVQAGGRLRLSCAASGRIFQLYTMGWYRQAPGKEREFVASISFITGRTYYADSVKGRFTISRDNAKKTVYLQMNSLKPEDTAVYYCNTRYDGGFDSWGQGTQVTVSS | high polyreactivity |
| QVQLVESGGGLVQAGGSLRLSCAASGSTFAGYVMGWYRQAPGKERELVAAISRSGGSTYYADSVKGRFTISRDNAKNTVYLQMNSLKPEDTAVYYCAARNSPGFPGDYWGHGTQVTVSS | high polyreactivity |
| QVQLVESGGGLVQAGGSLRLSCAASGRTFGYYAMGWYRKAPGKERELVAAISWRGTSTYYADSVKGRFTISRDNAKNTVYLQMNSLKPEDTAVYYCAVGRTVAHRFIAGDYWGQGTQVTVSS | high polyreactivity |
| QEQLQESGGGLVQACGSLRLSCAASGYIFSHQYMGWYRQAPGKERELVASISPGATTNYADSVKGRFTISRDNAKNTVYLQMNSLKPEDTAVYYFAVYKILDRRLSYWGQGTQVTVSC | high polyreactivity |
| QVQLVQSGGGLVQAGASLRLSCAASGSTFWKYAMGWYRQAPGQERELVASIRSGGSTYYADSVKGRFTISRDNAKNTVYLQMNSLIPEDTAVYYCAAVTHGRYDWVQGTQVTVSS | high polyreactivity |
| QVQRVESGGGLVQAGGSLRLSCAASGRIFQIYAMGWYRQAPGKERELVAAIRSGSNTNYADSVKGRFTISRDNAKNTVYLQMNSLKPEDTAVYYCNALYTSLRKDNYWGQGTQVTVST | low polyreactivity |
| QVQLVESGGGLVQAGGSLRLSCAASGSTFYYYAMGWYRQAPGKERELVAAITNVTSTYYADSVKGRFTISRDNAKNTVYLQMNSLKPEDTAGYYCAAPDPSTEVTYDYWGQGTQVTVSS | low polyreactivity |
| QVQLVESGGGLVQAGGSLRLSCAASGIILDRNAMGWYRQAPGKERELVAAINSIGGSTYYADSVKGRFTISRDNAKKTVYLQMNSLKPEDTAVYYCAAPSTSSYYWGQGTQVTVSS | low polyreactivity |
| QVQLVESGGGLDQAGGSLRLSCAASGFIFDYYAMGWYRQAPGKERELVAAISWDGDSTNYADSVKGRFTISRDNAKNTVYLQMNSLKPEDTAVYYCNADEQLVDGWFFRYDYWGQGTQVTVSS | low polyreactivity |
| QVQLVESGGGLVQAGGSLRLSCAASGITFNLNDMGWYRQAPGKERELVAAITSGGNTSYADSVKGRFTISRDNAKNTVYLQMNSLKPEDTAVYYCAADLHTELYKMDYWGQGTQVTVSS | low polyreactivity |
| QVQLVESGGGLVQAGGSLRISCAASGFTFRYNAMGWYRQAPVKERELVATISSRGGSTNYADSVKGRFTISRDNAKNTVYLLMNSLKPEDTAVYYCNNVRYRDLKRYDYWGQGTQVTVSS | high polyreactivity |
| QVQLVETGGGLVQAGGSLRLICAASGSTFQNNAMGCYIQAPGKERELVAAIRFSGGSTYYADSVKGRFTISRDNAKNTVYLQMNSLKPEDTAVYYCNAVVKRWSDYSYPVRYDYWGQGTQVTVSS | high polyreactivity |
| QFQLVESGRGLVQAGGSLRLSCAASGSTILYYAMGWYRQAPGTERELVAAISSSDGSTYYADSVKGRFTISRDNAKYTVYLQMNSLKPEDTAVYYCNADFYWGYNYWGQGTQVTVSS | high polyreactivity |
| QVQLVESGGGLVQAGGSLRLSCAASGRTFGSYVMGWYRQAPGKERELVAAITTSGGRTYYADSVKGRFTISRDNAKNTVYLQMNSLKPEDTAVYYCAAVQLTPTTLYRYYSWGQGTQVTVSS | high polyreactivity |
| QEQLQESGGGQVQAGGSLLLSCAASGNIIPSYYMGWYRQAPGKERELVAAITYGTSTNYADSVKGRFTISRDNAKNTVFLQMISLKPVDTAVYYCAVDFNYGDPLVHWGQGTQVTVSS | high polyreactivity |
| QVQLQESGGGLMQAGVSQRLSCAASGSISYYSDMGWYRQAPRKEREFVAGIGYGTTTYYADSVKGRFTTSRDNAKNTVYLQMISMKPEDTAVYYCAAYQGNGYEFYYWGQGTQVTVRS | low polyreactivity |
| QVQLVESGGGLVQAGGSLRLSCAASGSIFGGYAMGWYRQAPGKERELVAAISSGGSTYYADSVKGRFTISRDNAKNTVYLQMNSLKPEDTAVYYCATSTYAYRRNSYDYTRPRFGYWGQGTQVTVSS | high polyreactivity |
| QVQLVESGGGLVQAGGSLRLSCAASGRTFILNAMGWYRQAPGKERELVAAISWSGGSTYYADSVKGRFTISRDNAKNTVYLQMNCLKPEDTAVYYCAKRYVDPLGSGTHGSWGQGTQVTVSS | low polyreactivity |
| QVQLVESGGGLVQAGGRLRLSCAASGITFTYYSMGGYRQAPGKERELVAAITDDGNTNYADSVKGRFTISRDNAKNTVYLQMNSLIPEDTAVYYCAADLLGIPDYEYWGQGTQVTVSS | low polyreactivity |

| Sequence | polyreactivity (PSR sort gate) |
| --- | --- |
| QVQLVESGGGLVQAGGSHRLSCAASGRTFEYNGKGWYRQAPGKERELVAAITRGGSTYYADSVKGRFTISRDNAKNTVYLQMNSLKPEDTAVYYCAAEVGWSRYKWLEYWGQGTQVTVSS | low polyreactivity |
| QVQLVESGGGLVQAGGSLRLSCAASGLTFKRYVMGWYRQAPGKERELVAAITVSGGNTYYADSVKGRFTISRDNAKNTVYLQMNSLKPEDTAVYYCNADAGAIYYRRYHFYYWGQGTQVTVSS | low polyreactivity |
| QVQLVESGGGLVQAGGSLRLSCAASGRTFSTNAMGWYRQAPGKERELVAAISASGGSTYYADSVKGRFTISRDNAKNTVYLQMNSLKPEDTAVYYCAAYPGQWRTGYDYWGQGTQVTVSS | high polyreactivity |
| QVQLGESGGGLVKAGGSLRLSCAASGRIFFDYGMGGYRQAPGKERELVADITRGGGSTYYADSVKGRFTISRDNAKNTVYLQINSQKPEDTAVYYCAKESSCYYPQRFDYWGQVTQVTVSS | low polyreactivity |
| QVHLVESGGGLVQAGGSLRLSSAPSGLTLETNAMGWSRQAPGKERELVAGITYSGGTTYYADSVKGRFTISRDNAKNTVYLQMNSLKPEDTAVYYCAAHTSTSGHNFWGQGTQVTVSS | low polyreactivity |
| QVQHVESGGGLVQAGGSLRLSCAASGRIFPYYAMGWYRQAPGKERELVATITSGGSTYYADSVKGRFTISRDNAKNTVYLQMNSLKPEDTAVYYCAARYPSIYYYSYDYWGQGTQVTVSS | high polyreactivity |
| QVQLQESVVGLVLAGGSLRLICSASANISVYGSMGWYRKAPGKEREFVATIDPGTNTNYADSVKDRFTISRDNAKNTVFLQINSLKPEYTAVYYCAVEGGSDWPYRYWGQGTQVTVSS | low polyreactivity |
| QVQLVESGGGLVQAGGSLRLSCAASGSIFTFYAMGLYRQAPGKERELVAAISYRGGSTYYADSVKGRFTISRDNAKNTVYLQINSLKPEDTAVYYCAAARFPVFIQGYRMEYWGQGTQVTVSS | low polyreactivity |
| QVQLVESGGGLVQAGGSLRLSCAASGITFSQYAMGWYRQAPGTERELVAAISGSGGDTYYADSVKGRFTISRDNAKNTVYLQMNSLKPEDTAVYYCNADYESVYYEDYDYWGQGTQVTVSS | low polyreactivity |
| QVQLVESGGGLVQAGGSLRLSCAASGRTFYRNAMGWYRQAPGKERELVAAISGSGVRTYYADSVKGRFTISRDNAKNTVYLQMNSLKPEDTAVYYCARSVTWFRGRFSPDYGSWGQGTQVTVSS | high polyreactivity |
| QVQLVESGGGIVQAGGSLRLSCAASGNTFNFYAMGWYRQAPGKERELVASITSGGGTNYADSVKGRFTISRDNAKNTVYLQMNSLKPEDTAVYYCADQFYYHFRYHFDWGLGTQVTVSS | low polyreactivity |
| QVQLVESGGGLVQAGGSLRLSCAASGRTIRYYTMGWYRQAPGKEREFVAAISSTGGTYYADSVKGRFTISRDNAKNTVYLQMNSLKPEDTAVYYCAATFIQVVVNVQLYDYDYWGQGTQVTVSS | low polyreactivity |
| QVQLVESGGGLVQAGGSLSLSCAASGFIFDYYTMGWYRQAPGKEREFVAAINRRGDITYYADSVKGRFTISRDNAKNTVYLQMNSLKPEDTAVYSCAATLTWSSRYEYGYWGQGTQVTVSS | low polyreactivity |
| RVQLVESGGGLVHAGCSLRLSCAASGNTFWYNAMGWYRQAPGKVRELVAAISYSGGGTYYADSVKGRFTISRDNAKNTVYLQMNSLKPEDTAVYYCAADTLQRSFVLYDYWGHGTQVTVSS | high polyreactivity |
| QVQLVESGGGLVQAGGSLRLSCAASGLTFANYAMGWYRQAPGKERELVAAISTWSGGSTYYADSVKGRFTISRDHAKNTVYLQMNSLKPEDTAVYYCNTDRYWGKGDYWGQGTQVTVSS | high polyreactivity |
| QVQLVESGGGLVQAGGSLRLSCAASGYTFWRYAMGWYRQAPGKERELVAAISASGGSTYYADSVKGRFTISRDNAKNTVYLQMNSLKPEDTAVYYCNAVSAYSYYVNYDYWGQGTQVTVSS | high polyreactivity |
| QVQLVESGGGLVQAGGSLRISCAASGPTFGYNGMGWYRQAPGKERELVAAINSGGNTNYADSVKGRFTISRDNAKYTVDFQLNSLKPEDTAVYYCAKYGTLYEPVPNEYDYWGQGTQVTVSS | low polyreactivity |
| QVQLVESGGGLVQAGGSLRLSCASYGSIFAYYTMGWYRQAPGKARELVATISSRGGSKNYADSVKGRFTISRDNAKNPVYLQMNSLRPEDTAVYYCYAYHYQSGITVSEYDYWGQGTQVTVSS | high polyreactivity |
| QVQLVESGGGLVQAGGSLRLSCAASGSIFNYYAMGWYRQAPGKERELVAAITYGGASTYYADSVKGRFTISRDNAKNTVYLQMNSLKPEDTAVYYCAADSFTRWVFYRSTVRGFGYWGQGTQVTVSS | high polyreactivity |
| QVQLVESGGGLVQAGGSLRLSCAASGGIFSGNDMGWYRQAPGKERELVATITSDGSTNYSDSVKGRFTYSRDNAKNTVYLQMNSLKPEDTAVYYCAADGLYWWMYYWGQGTQVTVSS | low polyreactivity |
| QVQLVESGGGLVQAGGSLRLSCAASGLIFSAYAMGWYRQAPGKERELVAAISRRGTSTYYADSVKGRFTISRDNAKNTVYLQMNSLKPEDTGVYYCAADGYVFEGDYWGQGTQVTVSS | high polyreactivity |
